# Laboratory results reported in IntAct's records for PubMed 31515488.
# B1: Alpha-taxilin (Homo sapiens), P40222 (parent)
# chain: MKNQDKKNGAAKQSNPKSSPGQPEAGPEGAQERPSQAAPAVEAEGPGSSQAPRKPEGAQARTAQSGALRDVSEELSRQLEDILSTYCVDNNQGGPGEDGAQGEPAEPEDAEKSRTYVARNGEPEPTPVVNGEKEPSKGDPNTEEIRQSDEVGDRDHRRPQEKKKAKGLGKEITLLMQTLNTLSTPEEKLAALCKKYAELLEEHRNSQKQMKLLQKKQSQLVQEKDHLRGEHSKAVLARSKLESLCRELQRHNRSLKEEGVQRAREEEEKRKEVTSHFQVTLNDIQLQMEQHNERNSKLRQENMELAERLKKLIEQYELREEHIDKVFKHKDLQQQLVDAKLQQAQEMLKEAEERHQREKDFLLKEAVESQRMCELMKQQETHLKQQLALYTEKFEEFQNTLSKSSEVFTTFKQEMEKMTKKIKKLEKETTMYRSRWESSNKALLEMAEEKTVRDKELEGLQVKIQRLEKLCRALQTERNDLNKRVQDLSAGGQGSLTDSGPERRPEGPGAQAPSSPRVTEAPCYPGAPSTEASGQTGPQEPTSARA
# partner: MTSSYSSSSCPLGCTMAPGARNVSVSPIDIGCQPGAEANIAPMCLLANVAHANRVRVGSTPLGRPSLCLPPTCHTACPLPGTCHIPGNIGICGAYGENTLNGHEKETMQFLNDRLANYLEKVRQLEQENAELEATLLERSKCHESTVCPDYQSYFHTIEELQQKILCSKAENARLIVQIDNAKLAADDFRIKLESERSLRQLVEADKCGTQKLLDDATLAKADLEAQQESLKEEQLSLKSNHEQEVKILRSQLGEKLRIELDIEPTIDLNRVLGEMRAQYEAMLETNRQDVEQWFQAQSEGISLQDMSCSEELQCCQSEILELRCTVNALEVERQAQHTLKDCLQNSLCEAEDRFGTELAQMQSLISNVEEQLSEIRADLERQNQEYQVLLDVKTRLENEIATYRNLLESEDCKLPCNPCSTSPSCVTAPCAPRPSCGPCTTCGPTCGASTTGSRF
# B2: Keratin, type I cytoskeletal 13 (Homo sapiens), P13646 (parent)
# chain: MSLRLQSSSASYGGGFGGGSCQLGGGRGVSTCSTRFVSGGSAGGYGGGVSCGFGGGAGSGFGGGYGGGLGGGYGGGLGGGFGGGFAGGFVDFGACDGGLLTGNEKITMQNLNDRLASYLEKVRALEEANADLEVKIRDWHLKQSPASPERDYSPYYKTIEELRDKILTATIENNRVILEIDNARLAADDFRLKYENELALRQSVEADINGLRRVLDELTLSKTDLEMQIESLNEELAYMKKNHEEEMKEFSNQVVGQVNVEMDATPGIDLTRVLAEMREQYEAMAERNRRDAEEWFHTKSAELNKEVSTNTAMIQTSKTEITELRRTLQGLEIELQSQLSMKAGLENTVAETECRYALQLQQIQGLISSIEAQLSELRSEMECQNQEYKMLLDIKTRLEQEIATYRSLLEGQDAKMIGFPSSAGSVSPRSTSVTTTSSASVTTTSNASGRRTSDVRRP
# partner: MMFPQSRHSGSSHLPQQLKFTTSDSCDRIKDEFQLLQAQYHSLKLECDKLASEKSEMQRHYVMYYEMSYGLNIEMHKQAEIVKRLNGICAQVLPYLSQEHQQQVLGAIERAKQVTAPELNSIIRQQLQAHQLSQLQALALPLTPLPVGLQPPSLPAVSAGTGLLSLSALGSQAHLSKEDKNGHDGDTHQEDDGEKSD
# B3: Coiled-coil domain-containing protein 42 (Homo sapiens), Q96M95 (parent)
# chain: MSLGIMEEEDLAEYFRLQYGERLLQMLQKLPNVEGASESPSIWLLEKKKETEIMHQTMVQKKKMFQRRMETLNLRWEELGVKEAQLKAHIQKSEQFIQENDQKRIRAMKKANKERELKCQHMQELTKRKQEMVALRLEHQRLSAKLKDYYIFNKYLEKVVENSEFEEIHEVIARYKTLVSMRHDLMQSAQEGQEKIERAKARLARYMEEKDDEILQQNNELARLQMRFDRARSNVIFWESRWAHIQNTAAKKTLLLGTIKMATLNLFQIVSKHLKEVTEVALEDTHKQLDMIQQFIQDRSDIWAEVKKKEQQRVRI
# B4: Ligand of Numb protein X 2 (Homo sapiens), Q8N448 (parent)
# chain: MGTTSDEMVSVEQTSSSSLNPLCFECGQQHWTRENHLYNYQNEVDDDLVCHICLQPLLQPLDTPCGHTFCYKCLRNFLQEKDFCPLDRKRLHFKLCKKSSILVHKLLDKLLVLCPFSSVCKDVMQRCDLEAHLKNRCPGASHRRVALERRKTSRTQAEIENENGPTLLDPAGTLSPEADCLGTGAVPVERHLTSASLSTWSEEPGLDNPAFEESAGADTTQQPLSLPEGEITTIEIHRSNPYIQLGISIVGGNETPLINIVIQEVYRDGVIARDGRLLAGDQILQVNNYNISNVSHNYARAVLSQPCNTLHLTVLRERRFGNRAHNHSDSNSPREEIFQVALHKRDSGEQLGIKLVRRTDEPGVFILDLLEGGLAAQDGRLSSNDRVLAINGHDLKYGTPELAAQIIQASGERVNLTIARPGKPQPGNTIREAGNHSSSSQHHTPPPYYSRPSSHKDLTQCVTCQEKHITVKKEPHESLGMTVAGGRGSKSGELPIFVTSVPPHGCLARDGRIKRGDVLLNINGIDLTNLSHSEAVAMLKASAASPAVALKALEVQIVEEATQNAEEQPSTFSENEYDASWSPSWVMWLGLPSTLHSCHDIVLRRSYLGSWGFSIVGGYEENHTNQPFFIKTIVLGTPAYYDGRLKCGDMIVAVNGLSTVGMSHSALVPMLKEQRNKVTLTVICWPGSLV
# partner: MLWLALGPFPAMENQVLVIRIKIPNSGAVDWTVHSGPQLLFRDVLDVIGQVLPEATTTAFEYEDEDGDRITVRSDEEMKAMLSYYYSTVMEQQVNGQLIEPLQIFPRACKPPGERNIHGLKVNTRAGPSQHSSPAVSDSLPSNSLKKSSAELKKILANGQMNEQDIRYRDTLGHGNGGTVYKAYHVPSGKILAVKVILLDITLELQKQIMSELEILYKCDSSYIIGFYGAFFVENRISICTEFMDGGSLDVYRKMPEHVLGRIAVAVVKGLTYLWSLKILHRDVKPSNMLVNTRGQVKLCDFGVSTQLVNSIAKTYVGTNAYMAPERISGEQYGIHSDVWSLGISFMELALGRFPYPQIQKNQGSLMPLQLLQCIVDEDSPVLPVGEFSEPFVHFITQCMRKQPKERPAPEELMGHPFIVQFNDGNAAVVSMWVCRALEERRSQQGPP
# B5: Ubiquitin-conjugating enzyme E2 E3 (Homo sapiens), Q969T4 (parent)
# chain: MSSDRQRSDDESPSTSSGSSDADQRDPAAPEPEEQEERKPSATQQKKNTKLSSKTTAKLSTSAKRIQKELAEITLDPPPNCSAGPKGDNIYEWRSTILGPPGSVYEGGVFFLDITFSSDYPFKPPKVTFRTRIYHCNINSQGVICLDILKDNWSPALTISKVLLSICSLLTDCNPADPLVGSIATQYLTNRAEHDRIARQWTKRYAT
# partner: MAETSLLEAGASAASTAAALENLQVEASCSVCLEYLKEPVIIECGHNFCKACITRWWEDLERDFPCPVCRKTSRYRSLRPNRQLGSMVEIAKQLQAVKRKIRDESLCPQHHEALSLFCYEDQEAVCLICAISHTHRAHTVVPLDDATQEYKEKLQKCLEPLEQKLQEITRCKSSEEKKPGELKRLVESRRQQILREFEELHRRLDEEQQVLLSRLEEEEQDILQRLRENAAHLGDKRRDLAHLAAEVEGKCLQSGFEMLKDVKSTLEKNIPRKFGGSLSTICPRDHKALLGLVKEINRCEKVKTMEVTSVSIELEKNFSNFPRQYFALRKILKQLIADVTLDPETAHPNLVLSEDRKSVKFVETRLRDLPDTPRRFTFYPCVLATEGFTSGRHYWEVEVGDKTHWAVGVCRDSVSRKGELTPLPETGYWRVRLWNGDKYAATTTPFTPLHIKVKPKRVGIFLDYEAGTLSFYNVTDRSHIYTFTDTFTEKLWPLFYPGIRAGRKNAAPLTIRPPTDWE
# B6: Cyclin-D1-binding protein 1 (Homo sapiens), O95273 (parent)
# chain: MASATAPAAAVPTLASPLEQLRHLAEELRLLLPRVRVGEAQETTEEFNREMFWRRLNEAAVTVSREATTLTIVFSQLPLPSPQETQKFCEQVHAAIKAFIAVYYLLPKDQGITLRKLVRGATLDIVDGMAQLMEVLSVTPTQSPENNDLISYNSVWVACQQMPQIPRDNKAAALLMLTKNVDFVKDAHEEMEQAVEECDPYSGLLNDTEENNSDNHNHEDDVLGFPSNQDLYWSEDDQELIIPCLALVRASKACLKKIRMLVAENGKKDQVAQLDDIVDISDEISPSVDDLALSIYPPMCHLTVRINSAKLVSVLKKALEITKASHVTPQPEDSWIPLLINAIDHCMNRIKELTQSELEL
# partner: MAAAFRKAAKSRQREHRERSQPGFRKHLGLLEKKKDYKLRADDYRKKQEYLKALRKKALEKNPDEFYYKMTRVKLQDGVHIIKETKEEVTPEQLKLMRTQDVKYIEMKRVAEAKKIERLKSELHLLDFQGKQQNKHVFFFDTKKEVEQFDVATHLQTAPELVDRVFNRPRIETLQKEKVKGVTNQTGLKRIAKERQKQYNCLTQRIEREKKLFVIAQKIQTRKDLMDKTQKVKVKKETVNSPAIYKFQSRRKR
# B7: Zinc finger and BTB domain-containing protein 43 (Homo sapiens), O43298 (parent)
# chain: MEPGTNSFRVEFPDFSSTILQKLNQQRQQGQLCDVSIVVQGHIFRAHKAVLAASSPYFCDQVLLKNSRRIVLPDVMNPRVFENILLSSYTGRLVMPAPEIVSYLTAASFLQMWHVVDKCTEVLEGNPTVLCQKLNHGSDHQSPSSSSYNGLVESFELGSGGHTDFPKAQELRDGENEEESTKDELSSQLTEHEYLPSNSSTEHDRLSTEMASQDGEEGASDSAEFHYTRPMYSKPSIMAHKRWIHVKPERLEQACEGMDVHATYDEHQVTESINTVQTEHTVQPSGVEEDFHIGEKKVEAEFDEQADESNYDEQVDFYGSSMEEFSGERSDGNLIGHRQEAALAAGYSENIEMVTGIKEEASHLGFSATDKLYPCQCGKSFTHKSQRDRHMSMHLGLRPYGCGVCGKKFKMKHHLVGHMKIHTGIKPYECNICAKRFMWRDSFHRHVTSCTKSYEAAKAEQNTTEAN
# partner: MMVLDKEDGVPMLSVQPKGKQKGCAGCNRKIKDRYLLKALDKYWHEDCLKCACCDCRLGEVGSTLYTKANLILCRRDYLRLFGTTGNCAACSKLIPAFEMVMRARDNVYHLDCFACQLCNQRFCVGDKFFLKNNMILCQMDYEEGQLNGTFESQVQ
# Variants of: B1
# Settings: with krt38_human KRT38, O76015
row,effect of a mutation on the interaction,Variant
1,disrupting interaction strength,R154G
2,with no effect,P541S

# Variants of: B2
# Settings: with tle5_human TLE5, Q08117
row,effect of a mutation on the interaction,Variant
1,with no effect,R355H

# Variants of: B3
# Settings: with trim1_human MID2, Q9UJV3
# trim1_human MID2, Q9UJV3, sequence (Q9UJV3 whole entry): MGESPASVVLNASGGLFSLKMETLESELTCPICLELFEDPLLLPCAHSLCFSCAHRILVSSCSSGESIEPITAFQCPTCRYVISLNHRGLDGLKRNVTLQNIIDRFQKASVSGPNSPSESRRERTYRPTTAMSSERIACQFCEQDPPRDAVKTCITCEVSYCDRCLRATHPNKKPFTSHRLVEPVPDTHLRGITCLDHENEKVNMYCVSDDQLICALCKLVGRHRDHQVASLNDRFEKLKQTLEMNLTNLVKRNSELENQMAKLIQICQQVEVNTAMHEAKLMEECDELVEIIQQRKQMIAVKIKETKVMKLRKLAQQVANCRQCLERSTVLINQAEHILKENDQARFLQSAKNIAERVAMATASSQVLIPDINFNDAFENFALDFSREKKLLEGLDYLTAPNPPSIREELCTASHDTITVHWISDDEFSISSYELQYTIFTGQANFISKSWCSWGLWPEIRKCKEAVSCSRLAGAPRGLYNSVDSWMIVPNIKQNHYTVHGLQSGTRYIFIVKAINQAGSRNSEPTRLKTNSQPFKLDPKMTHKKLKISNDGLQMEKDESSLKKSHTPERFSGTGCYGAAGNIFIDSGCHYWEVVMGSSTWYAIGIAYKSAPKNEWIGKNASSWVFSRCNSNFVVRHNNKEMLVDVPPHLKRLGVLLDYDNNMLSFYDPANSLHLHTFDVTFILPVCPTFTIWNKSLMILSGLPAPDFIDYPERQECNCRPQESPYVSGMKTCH
row,effect of a mutation on the interaction,Variant
1,with no effect,R128H
2,with no effect,A144T

# Variants of: B3
# Settings: with tfp11_human TFIP11, Q9UBB9
# tfp11_human TFIP11, Q9UBB9, sequence (Q9UBB9 whole entry): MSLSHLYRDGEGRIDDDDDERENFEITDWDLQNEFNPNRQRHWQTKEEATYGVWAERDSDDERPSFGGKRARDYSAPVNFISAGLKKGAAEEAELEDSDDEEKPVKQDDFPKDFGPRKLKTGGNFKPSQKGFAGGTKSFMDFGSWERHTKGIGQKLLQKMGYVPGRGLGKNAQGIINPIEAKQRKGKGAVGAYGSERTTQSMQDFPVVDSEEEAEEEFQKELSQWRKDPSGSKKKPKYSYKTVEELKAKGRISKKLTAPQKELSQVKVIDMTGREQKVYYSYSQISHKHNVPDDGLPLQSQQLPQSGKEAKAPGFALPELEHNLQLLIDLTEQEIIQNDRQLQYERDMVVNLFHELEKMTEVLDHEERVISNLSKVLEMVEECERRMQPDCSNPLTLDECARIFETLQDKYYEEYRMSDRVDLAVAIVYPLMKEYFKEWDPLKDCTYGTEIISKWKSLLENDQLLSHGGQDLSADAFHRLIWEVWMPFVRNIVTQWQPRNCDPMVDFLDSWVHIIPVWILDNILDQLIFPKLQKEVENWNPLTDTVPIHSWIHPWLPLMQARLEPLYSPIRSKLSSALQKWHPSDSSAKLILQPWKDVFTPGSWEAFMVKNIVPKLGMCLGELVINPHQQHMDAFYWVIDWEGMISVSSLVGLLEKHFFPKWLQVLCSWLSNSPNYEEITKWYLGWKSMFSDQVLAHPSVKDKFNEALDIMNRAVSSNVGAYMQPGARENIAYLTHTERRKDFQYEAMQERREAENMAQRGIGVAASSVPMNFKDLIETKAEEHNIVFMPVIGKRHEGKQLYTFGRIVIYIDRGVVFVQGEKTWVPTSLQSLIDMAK
row,effect of a mutation on the interaction,Variant
1,with no effect,R128H
2,with no effect,A144T

# Variants of: B4
# Settings: with mp2k5_human MAP2K5, Q13163
row,effect of a mutation on the interaction,Variant
1,with no effect,S198P

# Variants of: B5
# Settings: with tri39_human TRIM39, Q9HCM9
row,effect of a mutation on the interaction,Variant
1,with no effect,S117T

# Variants of: B6
# Settings: with utp11_human UTP11, Q9Y3A2
row,effect of a mutation on the interaction,Variant
1,disrupting interaction strength,I277T

# Variants of: B7
# Settings: with rbtn1_human LMO1, P25800
row,effect of a mutation on the interaction,Variant
1,disrupting interaction strength,L151V
